Data on 23 molecules can be found in patent US20220195015A1 (published 2022).

One may read the EC50 as the concentration needed to bring the measured effect to its halfway point. A higher EC50 goes with weaker potency.

Numbering of substitutions follows the chain as printed.

First the molecules themselves.
B1: C522 (antibody, V domains shown)
VH: EVQLVESGGGLIQPGGSLRLSCAASEFIVSRNYMSWVRQAPGKGLEWVSVIYSGGSTFYADSVKGRFTISRDESKNTLYLQMNSLRAEDTAIYYCARDRGGGILDYWGQGTLVTVS
VL: DIQMTQSPSSLSASVGDRVTITCQASQDINIFLNWYQQKPGKAPKLLIYDASSLETGVPSRFSGSGSGTDFTFTISSLQPEDFATYYCQQYGNLPKYTFGQGTKLEIK
B2: C092 (antibody, V domains shown)
VH: QVQLVQSGAEVKKPGSSVKVSCKASGGSFTNHFISWVRQAPGQGLEWMGRIIPILGTANYAQNFQGRVMMTADKSTSTAYMELSSLRSEDTAVYYCARDSGYSGYGSTYYMDVWGKGTTVTVSS
VL: QSVLTQPPSVSGAPGQRVTISCTGSNSNIGAGYDVHWYQQLPGAAPKLLIYGNNNRPSGVPDRFSGSKSDTSASLAITGLQVEDEADYYCQSYDSSLSDSVFGSGTKVTVL
B3: C035 (antibody, V domains shown)
VH: EVQLVESGGGLVQPGGSLRLSCAASGFIFSSYWMTWVRQAPGKGLEWVASIKYNGNERNYVDSVKGRFTISRDNARNSLFLQLNNLGAEDTAVYYCARQPESTIWYYFDYWGQGTLVTVSS
VL: SYELTQPPSVSVSPGQTARVTCSGHALPDQYTYWYQQRPGRAPVLVIYVNNQRPSGIPDRFSATTSGTTVTLTISGVQAEDEADYYCQSADSSGSYVVFGGGTKLTVL
B4: C521 (antibody, V domains shown)
VH: EVQLVESGGGLVRPGGSLTLSCVASGFTVGSNFMSWVRQAPGKGLEWVSLIYNSGGTHYADSVKGRFTISRDRSKNTLYLQMNSLRAEDTAIYYCANHGYYYYMDVWGKGTTVTVS
VL: QSALTQPASVSGSPGQSITISCTGTGSDIGAYNYVSWHQHHPGKAPKLIIYDVSNRPSGVSNRFSGSKSGNTASLTISGLQAEDEADYYCTSYTNTTTPWVFGGGTKVTVL
B5: C068 (antibody, V domains shown)
VH: QVQLVESGGGVVQPGRSLRLSCVASGFSFSTYGMHWVRQAPGKGLEWVALIWSDGSNKYYGDAAEGRFTISRDNSNNTLYLQMNNLRAEDTALYYCARDHSSSSFVYYYYMDVWGKGTTVTVSS
VL: QSALTQPRSVSGSPGQSVTISCTGTSSDIGGYNYVSWYQQHPDKAPKFIIFDVSKRPSGVPDRFSGSKSGNTASLTISGLQAEDEADYYCCSYAGPYPYVFGTGTKVTVL
B6: C062 (antibody, V domains shown)
VH: EVQLVESGGGLVKPGGSLRLTCAASGFTFSTYSMNWVRQAPGKGLEWVSSISSSSSYIYYADSVKGRFTISRDNAKNSLYLQMNSLRAEDTAVYYCARERGYYGGKTPPFLGGQGTLVTVSS
VL: NFMLTQPHSVSESPGKTVTISCTGSSGSIASNYVQWYQQRPGSAPTTVIYEDNQRPSGVPDRFSGSIDSSSNSASLTISGLKTEDEADYYCQSYDSSNYWVFGGGTKLTVL
B7: C055 (antibody, V domains shown)
VH: EVQLVESGGGLVQPGGSLRLSCAASGFSVSTKYMTWVRQAPGKGLEWVSVLYSGRTDYYADSVKGRFTISRDSSKNILYLQMSSLRVEDTGFYYCARDSSEVRDHPGHPGRSVGAFDIWSQGTMVTVSS
VL: QSALTQPASVSGSPGQSIAISCTGTSNDVGSYTLVSWYQQYPGKAPKLLIFEDSQRSSGISNRFSGSKSGNTASLTISGLRGEDEADYYCCSYAGSHTFVFGGGTKVTVL
B8: C067 (antibody, V domains shown)
VH: VQLVESGGGVVQPGRSLRLSCAASGFSFRIFGMNWVRQAPGKGLDWVAGISHDGSDKYFADSVKGRFTISRDNSKNTLYLQMNSLRADDTAVYYCARDMEVDYYDRSGHYHVFHAFDIWGQGTMVTVSS
VL: DIVMTQSPDSLAVSLGARATINCKSSQSILYSSDNKSSLAWYQQKPGHPPKLLIYWASTRESGVPDRFSGSESGTDFTLTISNLQGEDVAVYYCQQYYSIPRSFGQGTKLEIK
B9: C050 (antibody, V domains shown)
VH: EVQLVESGGGLFQPGGSLRLSCAASGFSVRNNYVSWVRQAPGKGLEWVSVIYSGGTTYYADSVKGRFTISRDISENTLYLQMNSLRAEDTAVYYCAREGDVEGLHDFWSGYSRDRYYFDYWGQGTLVTVSS
VL: QSALTQPASVSGSPGQSIIISCTGTSGDIGGYNYVSWYQQHPGKAPKLMIYDVSFRPSGVSNRFSGSKSDNTASLTISGLQAEDEADYYCSSFTGNNTRVFGTGTKVTVL
B10: C052 (antibody, V domains shown)
VH: EVQLVESGGGLIRPGGSLRLSCAASGFSVSNNYMSWVRQAPGKGLEWVSVIYSGGTTYYADSVKGRFNISRDNSKNTVYLQMNSLRAEDTAVYYCAREGDVEGYYDFWSGYSRDRYYFDYWGQGALVTVSS
VL: B9 VL with I19T, G27S, I29V, F55N, D70G, S91N, F93Y, G95S
B11: C053 (antibody, V domains shown)
VH: B10 VH with R13Q, S28I, E46D, N68T, V78L, Y105H, F107S, A125T
VL: QSALTQPASVSGSPGQSITISCTGSSSDVGGYNFVSWYQQHPGRAPKLMIYDVSNRPSGVSNRFSGSKSGNTASLTISGLQVEDEADYYCSSYTNNNTRVFGTGTKVTVL
B12: C054 (antibody, V domains shown)
VH: B10 VH with R13Q, S28T, T56S, Y59D, N68T, V78L, R86S, A125T
VL: B11 VL with S25T, F34Y, R44K, V82A, N95S, N96S, N97S, T98A
B13: C066 (antibody, V domains shown)
VH: EVQLVESGGGLIQPGGSLRLSCAASGLLVSRNYMTWVRQAPGKGLEWVSVIYSGGSTFYADSVRGRFTISRDNSKNTLYLQMDSLRAEDTAVYYCARDVGDYYGMDVWGQGTTVTVSS
VL: DIQLTQSPAFLSASVGDRVTITCRASQGMSNYLAWYQQKPGKAPNLLIYTASTLQSGVPSRFSGSGSGTEFTLTISSLQPEDFATYYCQLLNSYPQLTFGGGTKVEIK
B14: C081 (antibody, V domains shown)
VH: EVQLVESGGGLVKPGGSLRLSCAASGFTFSSAWMSWVRQAPGKGLEWVGRIKTKTDGGTKDYAAPVKGRFTISRDDSKNTLYLQMNSLKTEDTAVYYCTTTNDYGDYSPAYWGQGTLVTVSS
VL: not shown
B15: C051 (antibody, V domains shown)
VH: B10 VH with R13Q, P14A, S28G, S30R, N68T, Y79F, Y104F, Y105S, F107L, A125T
VL: QSALTQPASVSGSPGQSITFSCTGTSSDVGGYNYVSWYQQYPGKAPKLLIYDVTNRPSGVSDRFSGSKSGNTASLTISGLQAEDEADYYCSSFTSSNTRVFGTGTKVTVL
B16: C065 (antibody, V domains shown)
VH: QVQLQESGPGLVKPSQTLSLTCTVSGGSISSSNYYWSWIRQHPGKGLEWIGYIDYSGGTYYNPSLKSRVTISVDTSKNQFSLKLSSVTAADTAVYYCARVSTTVTTYLVGGFDIWGQGTMVTVSS
VL: IRMTQSPSSLSASVGDRVTITCQASQDITNYLNWYQQKPGKAPKLLLYDASNLETGVPSRFSGSGSGTDFTFTISSLQPEDIATYYCQQYDNLPWTFGQGTKVEIK
B17: C060 (antibody, V domains shown)
VH: EVQLVESGGGLVQPGGSQRLSCAASGFTVSSNYMSWIRQAPGKGLEWVSVIYSGGSAYYVDSVKGRFTISRDNSKNTLYLQMNSLRPEDTAVYYCARIANYMDVWGKGTTVTVSS
VL: EIVMTQSPATLSVSPGERATLSCRASQSVSSHLAWYQQKPGQAPRLLIYGASTRATGIPTRFSGSGSGTEFTLTISSLQSEDFAVYYCQQYNNWPPLTFGGGTKVEIK
B18: C063 (antibody, V domains shown)
VH: EVQLVQSGAEVKKPGDSLKISCKASGYSFTRYWIGWVRQMPGKGLDWMGIIYPGDSDTRYSSSFQGQVTISADKSISTAYLQWSSLKASDTSLYYCVRRASSTNFEFWGQGTLVTVSS
VL: SYELTQPPSVSVAPGQTATITCGGNNIGSKTVHWYQQKPGQAPVVVVYDDSDRPSGIPERFSGSKSGSTATLTITRVEAGDEADYYCQVWDSTSDHYVFGTGTKVAVI
B19: C064 (antibody, V domains shown)
VH: EVQLLESGGDLVQPGGSLRLSCAASGFTFSNYAMSWVRQAPGKGLEWVSAISGSGGNTYYADSVKGRFTISRDNSKNTLYLQMNSLRAEDTAVYYCAKAVHYGGNSDRRFSEPSAPFDYWGQGTLVTVSS
VL: QSALTQPASVSGSPGQSITISCTGTSSDVGSYNLVSWYQQHPGKAPKLMIYEGSKRPSGVSNRFSGSKSGNTASLTISGLQAEDEADYYCCSYAGSSTPYVFGTGTKVTVL
B20: C057 (antibody, V domains shown)
VH: QVQLVQSGAEVKRPGASVKLSCKASGYIFTDYSIHWVRQAPGQGLEWMGWVNPNSGGGNSAQKFMDWVTMARDTSITTVYMELSRLRSDDTAVYYCARGPLFHKLVYDSWSGYHDGFDIWGQGTMVTVSS
VL: QSALTQPASVSGSPGQSITISCTGTSSDVGAYKFVSWYQQHPGKAPQLIIYEVSNRPSGVSNRFSGSKSGNTASLTISGLQAEDEADYYCSSYTNASTWVFGGGTELTVL
B21: C058 (antibody, V domains shown)
VH: QVQLVQSGAEVKKPGASVKVSCKASGYIFTDYSMHWVRQAPGQGLEWIGWVNPNSGGTNYAQKFQGWVTMARDTSITTVYMELSRLKSDDTAVYFCARGPLFHRLVYDFWSGYHDGFDMWGQGTMVTVSS
VL: B20 VL with A31G, Q47K, I49M, S91N, N95S, A96S, E106K
B22: C059 (antibody, V domains shown)
VH: QVQLVQSGAEVKKPGASIKVSCKASGYTFTDYSMHWVRQAPGQGLEWMGWINPNSGGTKYAQKFQGWVTMTRDMSITTVYMELTRLRSDATAVFYCARGPLFHKLVYDSWTGYHDGFDIWGQGTMVTVSS
VL: QSALTQPASVSGSPGQSITISCTGTSSDVGGYNYVSWYQHYPGKAPKLMIYEVTHRPSGVSNRFSGSKSGNTASLTISGLQAEDEADYYCSSSTNSSTWVFGGGTKMTVL
B23: C069 (antibody, V domains shown)
VH: QVQLVQSGAEVKKPGSSVNVSCKASGGTFSTYAIHWVRQAPGQGLEWMGGIIPLFHTANYAQKFQGRVTITADESTSTAYMELSSLRSEDTAMYYCAINTQWDLVPRWGRGTLVTVSS
VL: EIVLTQSPGTLSLAPGERATLSCRASQSVNSNYLAWYQQKPGQAPRLLIYGASSRATGIPDRFSGSGSGTDFTLTISRLEPEDFAVYYCQQYGFSLYSFGQGTKLEIK

One assay deals with SARS-CoV-2 receptor binding domain (RBD), wild type (SARS-CoV-2, UniProt P0DTC2 319-539). Put plainly: ELISA, RBD protein coated, mAb titrated. A general note: ELISA stands for enzyme-linked immunosorbent assay.
Turning to B1, the response was half-maximal at 0.93 ng/mL (EC50). On the same count and under the same terms, the figure for B2 is 7.07 ng/mL; for B3 it is 15.2 ng/mL. Take B4: the EC50 is 6.9 ng/mL.

The next assay has as its target SARS-CoV-2 spike protein receptor binding domain (RBD) (SARS-CoV-2, UniProt P0DTC2 319-539). As to the kind of experiment: ELISA on coated RBD protein.
For the molecule B5, the EC50 turned out to be 5.46 ng/mL.

In turn, B6 displayed an EC50 of 4.69 ng/mL. Same read-out and setting: the figure for B7 is 1.25 ng/mL; for B8 it is 6.98 ng/mL; for B9 it is 1.93 ng/mL. Still for that read-out and setting: next, B10: 1.23 ng/mL; B11: 1.53 ng/mL; B12: 1.58 ng/mL. The same measure, in the same setting: next, B13: 4.2 ng/mL; B14: 12.5 ng/mL. For B15, a half-maximal response (EC50) required 1.65 ng/mL. On the same count and under the same terms, next, B16: 29.1 ng/mL. Same read-out and setting: next, B17: 43.5 ng/mL; B18: 414 ng/mL. Turning to B19, the EC50 stood at 363 ng/mL. The same measure, in the same setting: next, B20: 2.31 ng/mL; B21: 2.28 ng/mL.

The molecule B22 yielded a concentration giving a half-maximal response (EC50) of 1.88 ng/mL.

Molecule B23 came in with an EC50 of 381 ng/mL.
